The source of these data is patent US20240327502A1.

Common to all, as to assay: cell-based or functional assay
Substrate in experiment [1]: F protein of hMPV B virus (human metapneumovirus subtype B)
Substrate in experiment [2]: F protein of hMPV A virus (human metapneumovirus subtype A)
Substrate in experiment [3]: F protein of RSV B/Washington virus (respiratory syncytial virus B, Washington strain)

Changes are numbered by the printed parent chain.

B1: M4A11 (antibody, V domains shown)
VH: QVQLVQSGSEVKRPGASVRVSCTASGYTFSNYGVSWMRQAPGHGLEWMGWISTHNQNVRYSQNFQGRVTVTTDTSTSTAYMDLRGLKPDDTAVYFCARMIPVGTTYTPYWTGWTPGGMDIWGQGTTVIVSS
VL: QSVLTQPPSASGTPGQRVIMSCSGTTSNIGRNFVYWYQQLPKEAPTLLIYGNDQRPAGVPDRFSGSTSGTSASLAISGLRSGDEADYYCATWDDSVNGPVFGGGTKLTVL
As for B1, the PRNT IC50 in experiment [1] and in experiment [2] was more than 10 µg/mL throughout.

B2: M3E01 (antibody, V domains shown)
VH: EVQLVESGGGLIQPGGSLRLSCTASGFTVSSKYMSWVRQAPGKGLEWVSLIYDGGSTYYADSVKGRFLISRDNAKNTLYLQMHSLRAEDTAVYYCARDRGTYSGYDWYSGMDVWGQGTTVTVSS
VL: DIQLTQSPSFLSASVGDRITITCRASQGISSYLAWYQQKPGKAPKLLIYAASTLQSGVPSRFSGSGSGTEFNVTISSLQPEDFATYYCQQLKSYPGTFGQGTKVEIE
For B2, the PRNT IC50 in experiment [1] and in experiment [2] was more than 10 µg/mL throughout.

B3: M4A05 (antibody, V domains shown)
VH: EVQLVESGGGLVKPGGSLRLSCAAFGFSLSGYGMNWVRQAPGKGLQWVSSITASSSYITYRDSLRGRFTISRDNAQNSLYLDMTALRVEDTAVYYCATNGKLPPYFDHWGQGVLVVVSS
VL: QSVLTQPPSVSGAPGQRVTISCTGSGSNIGAGYDVHWYQQLPGTAPKLLIYDNNHRASGVPDRVSASWSGTSASLAITGLQAEDEADYYCQSYDRNLEGVVFGGGTKLTVL
Turning to B3, the PRNT IC50 came out at 0.0425 µg/mL in experiment [1], 0.0569 µg/mL in experiment [2] and 0.0295 µg/mL in experiment [3].

B4: M4A02 (antibody, V domains shown)
VH: EVQLVESGGGLVEPGGSLRLSCAASGFMFTSYAMHWVRQAPGRGLEWVSSITGGGNFVEYAVSVQGRFTVSRDNNQNSLYLQMNSLRVEDTAMYYCAREDYNSGANLHWFDPWGQGTLVTVSS
VL: QSVLTQPPSVSGAPGQRVTISCTGSSSNIGAFFDVHWYSHLPGTAPKLLIYGDRNRPSGVPERFSGSKSGASASLTITGLRAEDEADYYCQSYDRGLSAWVFGGGTRVTVL
Take B4: the PRNT IC50 in experiment [1] came to 0.0927 µg/mL; in experiment [2], 0.186 µg/mL; in experiment [3] it was 0.0364 µg/mL.

B5: M3A06 (antibody, V domains shown)
VH: EVQLVESGGGLVKPGGSLRLSCAASGFTLTSYSMNWVRQAPGKGLEWVSSISSSSSYIHYADSVKGRFTISRDNAKNSVYLQMNSLRAEDTAAYYCARVARELDPFDMWGQGTVVTVAS
VL: QSVLTQPPSVSGAPGQRVTISCTGSSSNIGAGYDVHWYQQLPGTAPKLLVYANNNRPSGVPDRFSGSKSGTSASLAITGLQADDEADYYCQSYDRSLSGSVFGGGTKLTVL
As to B5, the PRNT IC50 in experiment [1] worked out at 0.416 µg/mL; in experiment [2], 0.31 µg/mL; in experiment [3], 0.0274 µg/mL.

B6: M3B02 (antibody, V domains shown)
VH: EVQLVESGGGLVKPGGSLRISCVASEFTLSGYAMNWVRQVPGKGLEWVSSISSSSSYINYADFVKGRFTISRDNAKNSVFLQLNSLRPEDTALYYCVRERPTAILPYLDLWGRGTLVTVSS
VL: B5 VL with H36Q, L41S, V50I, Y51H, A52G, D83E, S100W
As to B6, the PRNT IC50 is 1.54 µg/mL in experiment [1], 1.06 µg/mL in experiment [2] and 0.0153 µg/mL in experiment [3].
